# Patent US12590147 (OBLIQUE THERAPEUTICS, dated 2026)
# T1: OTV3-OVA (human, UniProt P01012 2-386 (chicken entry), conjugated to the carrier via N-terminal Cys)
# T1 sequence (peptide): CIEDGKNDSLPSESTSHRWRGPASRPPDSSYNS
# T1 sequence: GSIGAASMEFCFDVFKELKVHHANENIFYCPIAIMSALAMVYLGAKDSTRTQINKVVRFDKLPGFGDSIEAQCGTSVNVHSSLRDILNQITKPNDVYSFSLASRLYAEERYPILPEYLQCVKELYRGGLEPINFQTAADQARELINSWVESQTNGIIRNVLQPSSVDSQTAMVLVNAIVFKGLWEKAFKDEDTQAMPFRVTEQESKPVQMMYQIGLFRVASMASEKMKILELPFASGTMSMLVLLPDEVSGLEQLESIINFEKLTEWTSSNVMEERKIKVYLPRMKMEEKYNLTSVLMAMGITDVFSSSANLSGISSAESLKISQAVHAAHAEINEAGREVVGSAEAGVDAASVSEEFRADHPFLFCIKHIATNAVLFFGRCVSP
# T2: OTV5-OVA (human, UniProt P01012 2-386 (chicken entry), (Pra-) at the N-terminus; C-terminal amide (-CONH2); cyclic; conjugated to the carrier via N-terminal Cys as stated in Example 4)
# T2 sequence (peptide): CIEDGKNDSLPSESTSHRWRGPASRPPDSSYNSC
# T2 sequence: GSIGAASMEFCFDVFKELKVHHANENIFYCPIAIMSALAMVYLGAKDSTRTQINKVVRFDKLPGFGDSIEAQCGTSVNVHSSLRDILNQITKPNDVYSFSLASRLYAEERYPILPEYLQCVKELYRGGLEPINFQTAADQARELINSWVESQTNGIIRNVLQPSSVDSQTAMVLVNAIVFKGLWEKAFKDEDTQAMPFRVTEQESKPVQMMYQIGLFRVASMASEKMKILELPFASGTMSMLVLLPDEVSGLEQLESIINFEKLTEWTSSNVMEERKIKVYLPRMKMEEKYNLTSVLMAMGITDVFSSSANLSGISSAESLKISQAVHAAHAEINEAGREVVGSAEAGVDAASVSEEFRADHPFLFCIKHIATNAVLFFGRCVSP
# T3: OTV4-KLH (human; keyhole limpet, conjugated to the carrier via N-terminal Cys ; chain 1 pos 1: Cys chemically coupled to the KLH carrier (written C); linear peptide)
# T3 peptide: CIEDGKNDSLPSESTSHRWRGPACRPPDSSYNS
# T4: OTV4-OVA (human, UniProt P01012 2-386 (chicken entry), conjugated to the carrier via N-terminal Cys)
# T4 sequence (peptide): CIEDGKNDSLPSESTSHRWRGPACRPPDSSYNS
# T4 sequence: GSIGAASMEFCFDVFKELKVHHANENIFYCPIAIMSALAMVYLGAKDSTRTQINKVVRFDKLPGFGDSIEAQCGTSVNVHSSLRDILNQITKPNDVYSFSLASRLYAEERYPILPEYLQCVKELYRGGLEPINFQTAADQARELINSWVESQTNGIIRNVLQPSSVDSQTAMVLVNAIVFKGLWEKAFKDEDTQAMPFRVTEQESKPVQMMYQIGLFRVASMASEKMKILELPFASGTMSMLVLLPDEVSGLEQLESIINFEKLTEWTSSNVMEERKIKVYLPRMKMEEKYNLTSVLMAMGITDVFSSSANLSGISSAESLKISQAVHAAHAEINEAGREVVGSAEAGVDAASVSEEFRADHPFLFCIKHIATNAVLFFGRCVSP
# T5: OTV3-KLH (human; keyhole limpet, conjugated to the carrier via N-terminal Cys ; chain 1 pos 1: Cys chemically coupled to the KLH carrier (written C); linear peptide)
# T5 peptide: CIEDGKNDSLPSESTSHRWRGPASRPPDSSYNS
# T6: OTV5-KLH (human; keyhole limpet, (Pra-) at the N-terminus; C-terminal amide (-CONH2); cyclic; conjugated to the carrier via N-terminal Cys as stated in Example 4 ; chain 1: propargyl group (Pra-) on the N-terminus before Cys1, not …)
# T6 peptide: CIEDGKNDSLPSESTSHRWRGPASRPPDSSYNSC
# Key:
# OTV3-OVA [1] = biological target: T1, OTV3-OVA; assay: monoclonal phage ELISA, replicate 1
# Method: (§1) Single *E. coli* clones were picked randomly selected during the biopanning step and cultured. Supernatants containing phage were prepared and purified. ELISA plates were coated with antigens conjugated to carriers or carriers alone (control), followed by washing, blocking, washing and addition of purified phage. After additional washing, bound phage was detected using anti-phage-HRP antibody.
# (§2) This example describes the production of a monoclonal antibody by phage display. The phage library used in this case was a commercially available human naïve LiAb-Fab library (high diversity of 2×10E^10 variants). After 4 rounds of biopanning and ELISA tests, 80 clones were selected and 5 different sequences were identified within this group of phage clones, represented by R4P1-C1, #1, #2, #3, and #4. Each of these phage clones were tested by ELISA for binding to each of the individual peptides OTV3, OTV4, and OTV5 each coupled to either BSA, OVA or KLH (a total of 9 peptide-conjugates). This is an important confirmation step to ensure clone specificity because due to their nature phages can sometimes bind unspecifically. In the ELISA tests (monoclonal phage ELISA tests) one phage Fab clone, R4P1-C1, bound specifically and strongly to all three of the peptides (all nine of the peptide-carrier conjugates), whereas the other phage Fab clones appeared to be non-specific binders (see Table GG below, all phages were tested at the same concentration).
# OTV5-OVA [2] = biological target: T2, OTV5-OVA; assay: monoclonal phage ELISA, replicate 1
# Method: as §1, §2
# OTV4-KLH [3] = biological target: T3, OTV4-KLH; assay: monoclonal phage ELISA, replicate 1
# Method: as §1, §2
# OTV3-BSA [4] = biological target: T7, OTV3-BSA (human; bovine, conjugated to the carrier via N-terminal Cys); assay: monoclonal phage ELISA, replicate 1
# T7 sequence (P02769 25-607 limits assumed): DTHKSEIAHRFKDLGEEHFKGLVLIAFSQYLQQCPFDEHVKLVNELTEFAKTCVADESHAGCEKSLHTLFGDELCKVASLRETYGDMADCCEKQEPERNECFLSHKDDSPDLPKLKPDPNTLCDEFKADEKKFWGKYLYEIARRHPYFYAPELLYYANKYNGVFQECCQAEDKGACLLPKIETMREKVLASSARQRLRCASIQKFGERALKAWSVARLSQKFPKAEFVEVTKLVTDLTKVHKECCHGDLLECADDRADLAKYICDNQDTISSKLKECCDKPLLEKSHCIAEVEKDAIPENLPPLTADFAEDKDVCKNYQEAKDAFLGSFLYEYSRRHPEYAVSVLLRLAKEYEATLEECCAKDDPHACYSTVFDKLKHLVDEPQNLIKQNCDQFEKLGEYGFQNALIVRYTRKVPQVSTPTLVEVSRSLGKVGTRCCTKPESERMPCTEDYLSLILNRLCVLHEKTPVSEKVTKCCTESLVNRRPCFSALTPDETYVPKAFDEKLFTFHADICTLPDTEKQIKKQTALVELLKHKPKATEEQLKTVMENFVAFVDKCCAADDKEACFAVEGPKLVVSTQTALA
# Method: as §1, §2
# OTV4-OVA [5] = biological target: T4, OTV4-OVA; assay: monoclonal phage ELISA, replicate 1
# Method: as §1, §2
# OTV3-KLH [6] = biological target: T5, OTV3-KLH; assay: monoclonal phage ELISA, replicate 1
# Method: as §1, §2
# OTV5-KLH [7] = biological target: T6, OTV5-KLH; assay: monoclonal phage ELISA, replicate 1
# Method: as §1, §2
# OTV5-BSA [8] = biological target: T8, OTV5-BSA (human; bovine, (Pra-) at the N-terminus; C-terminal amide (-CONH2); cyclic; conjugated to the carrier via N-terminal Cys as stated in Example 4); assay: monoclonal phage ELISA, replicate 1
# T8 sequence (P02769 25-607 limits assumed): as above
# Method: as §1, §2
# OTV4-BSA [9] = biological target: T9, OTV4-BSA (human; bovine, conjugated to the carrier via N-terminal Cys); assay: monoclonal phage ELISA, replicate 1
# T9 sequence (P02769 25-607 limits assumed): as above
# Method: as §1, §2
# OTV3-OVA [10] = biological target: T1, OTV3-OVA; assay: monoclonal phage ELISA, replicate 2
# Method: as §1, §2
# OTV5-OVA [11] = biological target: T2, OTV5-OVA; assay: monoclonal phage ELISA, replicate 2
# Method: as §1, §2
# OTV4-KLH [12] = biological target: T3, OTV4-KLH; assay: monoclonal phage ELISA, replicate 2
# Method: as §1, §2
# OTV3-BSA [13] = biological target: T7, OTV3-BSA; assay: monoclonal phage ELISA, replicate 2
# Method: as §1, §2
# OTV4-OVA [14] = biological target: T4, OTV4-OVA; assay: monoclonal phage ELISA, replicate 2
# Method: as §1, §2
# OTV3-KLH [15] = biological target: T5, OTV3-KLH; assay: monoclonal phage ELISA, replicate 2
# Method: as §1, §2
# OTV5-KLH [16] = biological target: T6, OTV5-KLH; assay: monoclonal phage ELISA, replicate 2
# Method: as §1, §2
# OTV5-BSA [17] = biological target: T8, OTV5-BSA; assay: monoclonal phage ELISA, replicate 2
# Method: as §1, §2
# OTV4-BSA [18] = biological target: T9, OTV4-BSA; assay: monoclonal phage ELISA, replicate 2
# Method: as §1, §2
binder,measurement,setting,value
"R4P1-C1 (phage Fab clone) (Fab, V domains shown, also called phage clone R4P1-C1) VH: QVQLQQSGPGLVKPSQTLSLTCAISGDSVSSNSAAWNWIRQSPSRGLEWLGRTYYRSKWYNDYAVSVKSRITINPDTSKNQFSLQLNSVTPEDTAVYYCARDDYDPVGMYAFDIWGQGTLVTVSS VL: LPVLTQPPSASGTPGQRVTISCSGSSSNIGSNTVNWYQQLPGTAPKLLIYRNTQRPSGVPDRFSGSKSGTSASLAISGLQSEDEADYYCEAWDDSMRGAAFGGGTQLTVL",ELISA signal,OTV3-OVA [1],2.85
same,ELISA signal,OTV5-OVA [2],2.61
same,ELISA signal,OTV4-KLH [3],2.81
same,ELISA signal,OTV3-BSA [4],2.87
same,ELISA signal,OTV4-OVA [5],2.84
same,ELISA signal,OTV3-KLH [6],3.13
same,ELISA signal,OTV5-KLH [7],2.74
same,ELISA signal,OTV5-BSA [8],2.63
same,ELISA signal,OTV4-BSA [9],2.95
same,ELISA signal,OTV3-OVA [10],2.72
same,ELISA signal,OTV5-OVA [11],2.49
same,ELISA signal,OTV4-KLH [12],2.51
same,ELISA signal,OTV3-BSA [13],2.65
same,ELISA signal,OTV4-OVA [14],2.78
same,ELISA signal,OTV3-KLH [15],2.94
same,ELISA signal,OTV5-KLH [16],2.58
same,ELISA signal,OTV5-BSA [17],2.56
same,ELISA signal,OTV4-BSA [18],2.8
